Laboratory results from PMC12820186.

T1: CsEIN3 DNA-binding domain (CsEIN3-BD) (cucumber, UniProt A0A0A0LXB4 1-412)
T1 sequence: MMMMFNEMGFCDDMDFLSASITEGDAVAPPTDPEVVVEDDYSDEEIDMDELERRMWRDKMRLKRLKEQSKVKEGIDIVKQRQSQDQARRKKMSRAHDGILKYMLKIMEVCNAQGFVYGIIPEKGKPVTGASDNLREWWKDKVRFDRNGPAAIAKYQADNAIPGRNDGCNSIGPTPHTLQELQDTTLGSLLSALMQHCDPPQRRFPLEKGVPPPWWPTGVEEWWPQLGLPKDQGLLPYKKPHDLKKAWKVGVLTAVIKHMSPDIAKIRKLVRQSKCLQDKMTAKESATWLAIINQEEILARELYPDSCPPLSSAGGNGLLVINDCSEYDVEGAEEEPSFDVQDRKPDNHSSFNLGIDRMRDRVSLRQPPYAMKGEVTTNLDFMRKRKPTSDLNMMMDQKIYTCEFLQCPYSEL

B1: proCsCYP707A4 p3 probe (dsDNA)
DNA 1: TTGCCAACTAATTTCATGTTCAATCAATGAAAGTGA
DNA 2: TCACTTTCATTGATTGAACATGAAATTAGTTGGCAA
B2: proCsCYP707A4 p2 probe (dsDNA)
DNA 1: CGTCGTGTGAAGTACTTCATGGAGACGAATAAAAG
DNA 2: CTTTTATTCGTCTCCATGAAGTACTTCACACGACG
B3: proCsCYP707A4 p4 probe (dsDNA)
DNA 1: GCGAACGTCGTGTGAAGTACTTCATGGAGACGAATA
DNA 2: TATTCGTCTCCATGAAGTACTTCACACGACGTTCGC

These binders were tested against T1, CsEIN3 DNA-binding domain (CsEIN3-BD) (assay: EMSA).

Binding result, no binding:
B1
B2
B3
